Reference: patent USRE49294

Key:
[1] = molecular target: T1, Tel protelomerase (bacteriophage PY54) (UniProt Q8W5V1); test: cell_activity; conditions: SS- integrant at lambda attB, 42 C; no processing of SS- plasmid
T1 sequence: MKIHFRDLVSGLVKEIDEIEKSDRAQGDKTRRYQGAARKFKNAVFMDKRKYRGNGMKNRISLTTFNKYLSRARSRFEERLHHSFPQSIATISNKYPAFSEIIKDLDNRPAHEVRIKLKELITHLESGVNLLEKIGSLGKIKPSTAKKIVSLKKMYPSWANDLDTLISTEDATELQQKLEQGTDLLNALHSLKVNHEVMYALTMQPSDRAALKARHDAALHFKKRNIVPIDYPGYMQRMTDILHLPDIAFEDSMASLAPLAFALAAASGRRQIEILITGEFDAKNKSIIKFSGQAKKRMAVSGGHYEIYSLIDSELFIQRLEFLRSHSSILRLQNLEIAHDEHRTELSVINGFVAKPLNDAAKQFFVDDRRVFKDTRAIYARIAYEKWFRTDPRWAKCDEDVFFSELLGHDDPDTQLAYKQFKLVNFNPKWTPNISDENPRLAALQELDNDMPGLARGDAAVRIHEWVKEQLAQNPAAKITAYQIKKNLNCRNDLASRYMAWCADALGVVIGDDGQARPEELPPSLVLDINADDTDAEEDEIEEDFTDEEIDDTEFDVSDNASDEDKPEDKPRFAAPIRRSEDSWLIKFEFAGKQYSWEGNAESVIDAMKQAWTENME

[2] = molecular target: T2, TelN protelomerase (bacteriophage N15) (UniProt Q77WP1); test: cell_activity; conditions: SS- integrant at lambda attB, 42 C
T2 sequence: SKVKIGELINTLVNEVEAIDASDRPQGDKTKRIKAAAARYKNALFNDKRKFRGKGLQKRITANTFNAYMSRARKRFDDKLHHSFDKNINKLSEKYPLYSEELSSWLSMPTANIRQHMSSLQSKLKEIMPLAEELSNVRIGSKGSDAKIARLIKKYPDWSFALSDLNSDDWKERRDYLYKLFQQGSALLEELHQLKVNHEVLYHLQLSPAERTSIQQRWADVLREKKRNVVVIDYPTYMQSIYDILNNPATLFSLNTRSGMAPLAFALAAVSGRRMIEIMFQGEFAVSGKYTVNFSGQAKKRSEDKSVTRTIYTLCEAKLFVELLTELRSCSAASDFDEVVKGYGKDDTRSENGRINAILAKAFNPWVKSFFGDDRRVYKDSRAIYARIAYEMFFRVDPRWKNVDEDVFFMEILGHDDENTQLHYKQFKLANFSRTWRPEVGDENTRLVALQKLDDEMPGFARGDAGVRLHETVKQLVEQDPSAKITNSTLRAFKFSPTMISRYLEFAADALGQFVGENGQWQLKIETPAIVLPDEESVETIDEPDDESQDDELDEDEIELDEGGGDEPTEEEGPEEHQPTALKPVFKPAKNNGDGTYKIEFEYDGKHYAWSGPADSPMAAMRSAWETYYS

Q: SS-minus plasmid (no target site) was tested. Which activity (fraction viable) [1] did it give?
A: Its activity (fraction viable) is 1.

Q: What about the activity (fraction viable) [2] of the same substance?
A: The activity (fraction viable) was 0.6.
